In assay [1] the target is T1, recombinant human lymphotoxin beta receptor (LTβR) (human, UniProt P36941 28-227, limits assumed).
T1 construct: neither construct is described; also called human LTβR; recombinant human LTβR protein
As to the kind of experiment: SPR, human LTβR immobilised on CM5, fusion protein as analyte, 1:1 binding model. How it is done: Specifically, the surface of the CM5 chip was activated with a 1:1 mixture of […], and 5 μg/mL of human LTβR was immobilized for 60 seconds at a rate of 10 μL/min. The remaining active ester groups were blocked with 1 M ethanolamine. […] The diluted fusion proteins were reacted at a rate of 30 μL/min. The association and dissociation times were 180 seconds and 400 seconds, respectively. After the dissociation step, stabilization was performed for 60 seconds, and then the regeneration step was performed for 30 seconds with a 10 mM glycine pH 1.5 solution at a rate of 30 μL/min.

In another assay the target is T2, human LTβR on A375 cells (human, UniProt P36941 31-435).
T2 construct: whole, on cells; Endogenous receptor of a human cell line; also called LTβR expressing A375 cells; LTβR expressing cell line
T2 sequence (P36941 31-435): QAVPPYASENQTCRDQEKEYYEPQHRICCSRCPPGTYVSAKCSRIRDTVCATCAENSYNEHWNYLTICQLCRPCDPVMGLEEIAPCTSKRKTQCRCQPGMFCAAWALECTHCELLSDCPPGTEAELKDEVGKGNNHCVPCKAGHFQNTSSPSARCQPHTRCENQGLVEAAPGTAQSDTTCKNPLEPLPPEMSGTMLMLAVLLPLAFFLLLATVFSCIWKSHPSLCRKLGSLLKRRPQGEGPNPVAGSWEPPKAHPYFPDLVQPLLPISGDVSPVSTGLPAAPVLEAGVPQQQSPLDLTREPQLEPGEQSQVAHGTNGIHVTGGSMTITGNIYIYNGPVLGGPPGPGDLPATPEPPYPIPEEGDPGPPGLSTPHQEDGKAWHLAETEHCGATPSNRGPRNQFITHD
As to the kind of experiment: flow cytometry on A375 cells, serial dilution from 500 nM, anti-human IgG detection. How it is done:
Specifically, the A375 cell line was prepared by suspending in a FACS buffer solution at 1×10⁵ cells/100 μL, and treated with 100 μL each of T3.01, T3.07, T3.04, and T3.18 prepared by suspending at 500 nM and diluting by serial dilution. The cells were washed twice with a FACS buffer solution. The cells were stained with an anti-human IgG antibody (Biolegend). The expression ratio of the stained cells was measured using BD LSR and analyzed using FlowJo software.
In general terms: A flow cytometer gives signals particle by particle.

Assay [2] has as its target T3, human FAP on HEK293-hFAP cells (human, UniProt Q12884 1-760).
T3 construct: whole, on cells; also called human FAP-expressing cell line
T3 sequence (looked up): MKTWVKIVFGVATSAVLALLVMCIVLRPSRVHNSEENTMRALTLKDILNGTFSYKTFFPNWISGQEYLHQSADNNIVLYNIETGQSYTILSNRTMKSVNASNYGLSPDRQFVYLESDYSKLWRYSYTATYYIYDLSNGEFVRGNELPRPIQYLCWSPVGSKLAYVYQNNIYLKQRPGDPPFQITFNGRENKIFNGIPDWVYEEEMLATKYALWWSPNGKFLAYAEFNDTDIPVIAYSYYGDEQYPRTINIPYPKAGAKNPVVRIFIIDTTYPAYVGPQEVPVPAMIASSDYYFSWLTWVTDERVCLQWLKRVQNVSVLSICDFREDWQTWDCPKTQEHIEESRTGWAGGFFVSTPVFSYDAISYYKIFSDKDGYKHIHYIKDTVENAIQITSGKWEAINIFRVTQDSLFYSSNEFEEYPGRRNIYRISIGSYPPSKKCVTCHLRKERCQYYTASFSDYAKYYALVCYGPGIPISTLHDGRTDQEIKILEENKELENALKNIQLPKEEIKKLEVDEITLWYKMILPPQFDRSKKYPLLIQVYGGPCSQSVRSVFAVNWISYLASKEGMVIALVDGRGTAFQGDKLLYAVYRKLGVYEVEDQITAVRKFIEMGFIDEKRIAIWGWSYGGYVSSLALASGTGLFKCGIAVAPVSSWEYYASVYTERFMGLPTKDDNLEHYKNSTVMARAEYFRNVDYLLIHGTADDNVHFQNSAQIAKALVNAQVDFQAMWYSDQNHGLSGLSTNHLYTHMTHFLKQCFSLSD
As to the kind of experiment: flow cytometry on HEK293-hFAP cells, 1 ug protein per 1x10^5 cells, anti-human IgG detection (axis TMEkine-PE). An outline of the steps: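 HEK293-hFAP cells, 1×10⁵ per 100 μL FACS buffer, incubated with 1 μg antibody, washed twice, then stained with anti-human IgG. Negative control received secondary antibody only. Stained-cell ratio measured by flow cytometry.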

Assay [3] concerns the target T4, recombinant human herpes virus entry mediator (HVEM) (human, UniProt Q92956 39-202).
T4 construct: neither construct is described; also called human HVEM; recombinant human HVEM protein (R&D systems)
T4 sequence (looked up): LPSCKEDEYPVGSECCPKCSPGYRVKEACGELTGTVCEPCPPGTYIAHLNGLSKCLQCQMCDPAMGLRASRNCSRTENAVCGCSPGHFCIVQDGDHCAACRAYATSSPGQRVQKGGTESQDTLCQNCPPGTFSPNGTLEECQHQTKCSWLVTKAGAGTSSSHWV
As to the kind of experiment: SPR, human HVEM immobilised on CM5, fusion protein as analyte, 1:1 binding model. How it is done: (§1) Specifically, the surface of the CM5 chip was activated with a 1:1 mixture of […], and 5 to 6 μg/mL of human HVEM was immobilized for 60 seconds at a rate of 10 μL/min. The remaining active ester groups were blocked with 1 M ethanolamine. T3.01, T3.07, T3.09, T3.14, and T3.18 were each diluted to 100 nM in 1×HBS-EP+buffer solution and diluted by serial dilution. The diluted fusion proteins were reacted at a rate of 30 μL/min. The association and dissociation times were 180 seconds and 400 seconds, respectively. After the dissociation step, stabilization was performed for 60 seconds, and then the regeneration step was performed for 30 seconds with a 10 mM glycine pH 1.5 solution at a rate of 30 μL/min.

In assay [4] the target is T4, recombinant human herpes virus entry …. As to the kind of experiment: SPR, human HVEM immobilised on the chip (title: PRO096; 6ug/ml human HVEM pH5.5), T3.14 as analyte 0.78125-100 nM. Here is the method:
as §1
Background: Surface plasmon resonance follows binding to a sensor surface in real time, without labels.

Usually Kd stands for the equilibrium constant for the complex coming apart. The term koff denotes the rate constant with which the complex falls apart. For orientation: kon means the second-order rate constant of association.

T1 sequence (P36941 28-227 limits assumed): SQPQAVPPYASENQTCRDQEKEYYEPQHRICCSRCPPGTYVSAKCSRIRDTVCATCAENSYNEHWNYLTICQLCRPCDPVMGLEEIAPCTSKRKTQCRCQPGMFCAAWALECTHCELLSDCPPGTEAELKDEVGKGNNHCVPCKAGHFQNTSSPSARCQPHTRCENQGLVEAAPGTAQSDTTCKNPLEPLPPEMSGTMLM

B1: T3.01 (anti-hu FAP/hu scLIGHT3, hu IgG1 DANG) (bispecific antibody)
heavy: QVQLVQSGAEVKKPGASVKVSCKTSRYTFTEYTIHWVRQAPGQRLEWIGGINPNNGIPNYNQKFKGRVTITVDTSASTAYMELSSLRSEDTAVYYCARRRIAYGYDEGHAMDYWGQGTLVTVSSASTKGPSVFPLAPSSKSTSGGTAALGCLVKDYFPEPVTVSWNSGALTSGVHTFPAVLQSSGLYSLSSVVTVPSSSLGTQTYICNVNHKPSNTKVDKKVEPKSCDKTHTCPPCPAPELLGGPSVFLFPPKPKDTLMISRTPEVTCVVVAVSHEDPEVKFNWYVDGVEVHNAKTKPREEQYGSTYRVVSVLTVLHQDWLNGKEYKCKVSNKALPAPIEKTISKAKGQPREPQVYTLPPSRDELTKNQVSLWCLVKGFYPSDIAVEWESNGQPENNYKTTPPVLDSDGSFFLYSKLTVDKSRWQQGNVFSCSVMHEALHNHYTQKSLSLSPGK
light: not shown
chain: not shown
notes: Knob-into-hole heterodimer: one anti-FAP Fab arm and one single-chain human LIGHT (91-240) homotrimer arm
As to B1, in assay [1], the Kd was 928 pM, the koff worked out at 0.000321 s⁻¹ and the kon amounted to 346000 M⁻¹ s⁻¹. For the same molecule, the “percent of cells bound” value with human LTβR on A375 cells is at least 96%. Besides, the “percent of cells in the positive gate” value in assay [2] stood at 99.5%. For the same molecule, in assay [3], the Kd stood at 4240 pM, the koff is 0.00119 s⁻¹ and the kon was 281000 M⁻¹ s⁻¹.

B2: T3.14 (anti-hu FAP/hu scLIGHT-LTb2, hu IgG1 DANG) (bispecific antibody)
heavy: QVQLVQSGAEVKKPGASVKVSCKTSRYTFTEYTIHWVRQAPGQRLEWIGGINPNNGIPNYNQKFKGRVTITVDTSASTAYMELSSLRSEDTAVYYCARRRIAYGYDEGHAMDYWGQGTLVTVSSASTKGPSVFPLAPSSKSTSGGTAALGCLVKDYFPEPVTVSWNSGALTSGVHTFPAVLQSSGLYSLSSVVTVPSSSLGTQTYICNVNHKPSNTKVDKKVEPKSCDKTHTCPPCPAPELLGGPSVFLFPPKPKDTLMISRTPEVTCVVVAVSHEDPEVKFNWYVDGVEVHNAKTKPREEQYGSTYRVVSVLTVLHQDWLNGKEYKCKVSNKALPAPIEKTISKAKGQPREPQVYTLPPSRDELTKNQVSLWCLVKGFYPSDIAVEWESNGQPENNYKTTPPVLDSDGSFFLYSKLTVDKSRWQQGNVFSCSVMHEALHNHYTQKSLSLSPGK
light: not shown
chain: not shown
notes: Knob-into-hole; single-chain heterotrimer of one human LIGHT and two human lymphotoxin beta (87-243)
For B2, in assay [1], the dissociation constant Kd was 290 pM, the koff stood at 0.000434 s⁻¹ and the kon was determined as 1.5e+06 M⁻¹ s⁻¹. In addition, in assay [2], the “percent of cells in the positive gate” value came out at 99.9%. Moreover, the binding result in assay [4] is “no binding (tested: 100 nM)”.

Source of the values: US20250368754A1 (KANAPH THERAPEUTICS, published 2025).
